Test results reported in US20230406907A1 (SORRENTO THERAPEUTICS, published 2023).

Biological target: SARS-CoV-2 S1 subunit (amino acids 16-685 of SEQ ID NO:1, i.e. SEQ ID NO:4) with a carboxy terminal … (SARS-CoV-2, UniProt P0DTC2 16-685)

B1: antibody S1D2 (fully human recombinant monoclonal IgG1, no Fc mutation) (antibody, V domains shown)
VH: EVQLVESGGGLIQPGGSLRLSCAASGFTVSSNYMSWVRQAPGKGLEWVSIIYPGGSTNYADSVKGRFTISRDNSRNTLYLQMNSLRAEDTAVYYCARELGYYGMDVWGQGTTVTVSS
VL: DIQMTQSPSSVSASVGDRVTITCRASQGISTWLVWYQQKPGKAPNLLIYGASSLQSGVPSRFSGSGSGTDFTLTISSLQPEDFATYYCQQANSFPYTFGQGTKLEIK
Q: B1 was tested. Which IC50 did it give?
A: Its IC50 is 1.87 nM.
